According to the Immune Epitope Database (IEDB):

Assays:
HLA-A*01:01 = experiment: IEDB peptide-MHC binding, purified MHC/direct/fluorescence; filed as Kd, often an IC50 or EC50 that approximates it; ≥ and ≤ were set here for values at or beyond the usual limits of such assays
HLA-B*18:01 = experiment: as above; conditions: source organism: Francisella tularensis subsp. tularensis FSC033
HLA-B*15:09 = experiment: as above; conditions: source organism: Francisella tularensis subsp. tularensis FSC033
HLA-B*08:02 = experiment: as above
HLA-B*15:01 = experiment: as above
HLA-B*08:01 = experiment: as above
HLA-B*07:02 = experiment: as above
HLA-A*11:01 = experiment: as above
HLA-A*24:03 = experiment: as above; conditions: source organism: Francisella tularensis subsp. holarctica LVS
HLA-B*58:01 = experiment: as above
HLA-B*15:17 = experiment: IEDB peptide-MHC binding, purified MHC/competitive/fluorescence; filed as Kd, often an IC50 or EC50 that approximates it; ≥ and ≤ were set here for values at or beyond the usual limits of such assays; conditions: source organism: Francisella tularensis subsp. tularensis FSC198
HLA-A*68:02 = experiment: as above; conditions: source organism: Francisella tularensis subsp. tularensis FSC198
HLA-A*26:03 = experiment: as above; conditions: source organism: Francisella tularensis subsp. tularensis FSC198
HLA-A*26:02 = experiment: as above; conditions: source organism: Francisella tularensis subsp. tularensis FSC198
HLA-B*57:01 = experiment: as above; conditions: source organism: Francisella tularensis subsp. tularensis FSC198
HLA-A*31:01 [1] = experiment: as above; conditions: source organism: Francisella tularensis subsp. tularensis FSC198
HLA-A*02:01 [2] = experiment: as above; conditions: source organism: Francisella tularensis subsp. tularensis FSC198
HLA-A*69:01 = experiment: IEDB peptide-MHC binding, purified MHC/direct/fluorescence; filed as Kd, often an IC50 or EC50 that approximates it; ≥ and ≤ were set here for values at or beyond the usual limits of such assays
HLA-B*44:02 = experiment: as above
HLA-A*24:02 = experiment: as above
HLA-B*46:01 = experiment: as above; conditions: source organism: Influenza A virus (A/goose/Hong Kong/8/1976(H1N1))
HLA-A*03:01 = experiment: as above
HLA-B*27:05 = experiment: as above
HLA-B*40:01 = experiment: as above
HLA-A*02:01 [3] = experiment: as above
HLA-A*26:01 = experiment: as above; conditions: source organism: Influenza A virus(A/swine/Shandong/fNY/2003(H9N2))
HLA-A*31:01 [4] = experiment: as above; conditions: source organism: Shigella flexneri
[5] = source organism: Francisella tularensis subsp. holarctica LVS
[6] = source organism: Francisella tularensis subsp. tularensis FSC033
[7] = source organism: Influenza A virus (A/goose/Hong Kong/8/1976(H1N1))
[8] = source organism: Shigella flexneri

IYTVIYYIF
Kd (HLA-A*01:01; [5]): ≥ 20 µM
Kd (HLA-B*18:01): 8.93 µM
Kd (HLA-B*15:09): ≥ 20 µM
Kd (HLA-B*08:02; [6]): ≥ 20 µM
Kd (HLA-B*15:01; [5]): ≥ 20 µM
Kd (HLA-B*08:01; [6]): ≥ 20 µM
Kd (HLA-B*07:02; [5]): ≥ 20 µM
Kd (HLA-A*11:01; [5]): ≥ 20 µM
Kd (HLA-A*24:03): 0.27 µM
Kd (HLA-B*58:01; [6]): 0.15 µM
Kd (HLA-B*15:17): 0.439 µM
Kd (HLA-A*68:02): 3.96 µM
Kd (HLA-A*26:03): ≥ 20 µM
Kd (HLA-A*26:02): 1.13 µM
Kd (HLA-B*57:01): ≥ 20 µM
Kd (HLA-A*31:01 [1]): ≥ 20 µM
Kd (HLA-A*02:01 [2]): ≥ 20 µM

KTTYWWDGL
Kd (HLA-A*01:01; [7]): ≥ 20 µM
Kd (HLA-A*69:01; [7]): ≥ 20 µM
Kd (HLA-B*44:02; [7]): ≥ 20 µM
Kd (HLA-A*24:02; [7]): ≥ 20 µM
Kd (HLA-B*46:01): ≥ 20 µM
Kd (HLA-A*03:01; [7]): ≥ 20 µM
Kd (HLA-B*08:02; source organism: Influenza A virus(A/swine/Shandong/fNY/2003(H9N2))): ≥ 20 µM
Kd (HLA-B*15:01; [7]): ≥ 20 µM
Kd (HLA-B*27:05; [7]): ≥ 20 µM
Kd (HLA-B*08:01; [7]): ≥ 20 µM
Kd (HLA-B*07:02; [7]): ≥ 20 µM
Kd (HLA-B*40:01; source organism: Influenza A virus (A/Puerto Rico/8/34/Mount Sinai(H1N1))): ≥ 5 µM
Kd (HLA-A*11:01; [7]): ≥ 20 µM
Kd (HLA-A*02:01 [3]; [7]): ≥ 20 µM
Kd (HLA-A*26:01): ≥ 20 µM
Kd (HLA-B*58:01; [7]): ≥ 5 µM

LSSIGIPAY
Kd (HLA-A*01:01; [8]): 0.366 µM
Kd (HLA-A*69:01; [8]): ≥ 20 µM
Kd (HLA-B*44:02; [8]): ≥ 20 µM
Kd (HLA-A*24:02; [8]): ≥ 20 µM
Kd (HLA-A*03:01; [8]): ≥ 20 µM
Kd (HLA-B*15:01; [8]): 0.304 µM
Kd (HLA-B*27:05; [8]): ≥ 20 µM
Kd (HLA-B*07:02; [8]): ≥ 20 µM
Kd (HLA-B*40:01; [8]): ≥ 20 µM
Kd (HLA-A*11:01; [8]): ≥ 20 µM
Kd (HLA-A*31:01 [4]): ≥ 20 µM
Kd (HLA-A*02:01 [3]; [8]): ≥ 20 µM
Kd (HLA-B*58:01; [8]): 0.178 µM
